{"source": "patent US20150087581A1", "about": "(AURIGENE DISCOVERY TECHNOLOGIES, published 2015)", "note": "Bridges are numbered along the chain shown (N, C = ends). Where no end group is shown, it is not given here. [ ]: non-standard residue; d: D form. The star is where a group is joined. Biotin = O=C1N[C@H]2[C@H](CS[C@H]2CCCCC(=O)*)N1; Palmitoyl = CCCCCCCCCCCCCCCC(=O)*; R5 = C=CCCC[C@@](C)(N)C(=O)O; SNTSESF = not defined here; Octanoyl = CCCCCCCC(=O)*; Hexanoyl = CCCCCC(=O)*; Ahx = NCCCCCC(=O)O", "data": [{"biological_target": "hPDL1 expressed on MDA-MB231 cells (human, UniProt Q9NZQ7 19-290)", "sequence (Q9NZQ7 19-290)": "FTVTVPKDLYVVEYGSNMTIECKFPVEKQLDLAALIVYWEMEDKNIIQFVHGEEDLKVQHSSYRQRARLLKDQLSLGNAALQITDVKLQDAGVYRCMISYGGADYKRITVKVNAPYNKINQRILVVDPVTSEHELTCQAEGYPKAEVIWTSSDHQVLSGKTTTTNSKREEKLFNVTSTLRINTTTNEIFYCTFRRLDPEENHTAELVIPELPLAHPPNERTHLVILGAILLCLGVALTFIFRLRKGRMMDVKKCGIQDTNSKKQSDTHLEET", "experiment": "cell-based or functional assay", "units": {"Percent rescue (100 nM, compared with 100 nM Comp 8) in mouse splenocyte proliferation CFSE based assay": "%"}, "values": [{"binder": "SNTSESFFRVTQLAPKAQIKE-NH2", "note": "[Compound 26]", "Percent rescue (100 nM, compared with 100 nM Comp 8) in mouse splenocyte proliferation CFSE based assay": 86.6}, {"binder": "{Biotin-Ahx}-EKIQAKPAYWNLVKDTQNS-NH2 (not fully specified (residue 14))", "note": "[Compound 61]", "Percent rescue (100 nM, compared with 100 nM Comp 8) in mouse splenocyte proliferation CFSE based assay": 67}, {"binder": "LAPKFRVTQLAPKAQIKE-NH2 (not fully specified (residue 4); printed as LAPK(LAP)FRVTQLAPKAQIKE-NH2)", "note": "[Compound 38]", "Percent rescue (100 nM, compared with 100 nM Comp 8) in mouse splenocyte proliferation CFSE based assay": 51.5}, {"binder": "SNTSESFK-NH2 (not fully specified (residue 8))", "note": "[Compound 29]", "Percent rescue (100 nM, compared with 100 nM Comp 8) in mouse splenocyte proliferation CFSE based assay": 31.1}, {"binder": "SNQTDKLAAFPEDSQPGQD-NH2", "note": "[Compound 3]", "Percent rescue (100 nM, compared with 100 nM Comp 8) in mouse splenocyte proliferation CFSE based assay": 37.3}, {"binder": "EDRSQPGQDCR-NH2", "note": "[Compound 4]", "Percent rescue (100 nM, compared with 100 nM Comp 8) in mouse splenocyte proliferation CFSE based assay": 74.7}, {"binder": "SNTSESFKFRVTQLAPK(Octanoyl)AQIKE-NH2 (not fully specified (residue 8))", "note": "[Compound 45]", "Percent rescue (100 nM, compared with 100 nM Comp 8) in mouse splenocyte proliferation CFSE based assay": 68}, {"binder": "Hexanoyl-SNTSESFKFRVTQLAPKAQIKE-NH2 (not fully specified (residue 8))", "note": "[Compound 21]", "Percent rescue (100 nM, compared with 100 nM Comp 8) in mouse splenocyte proliferation CFSE based assay": 76.7}, {"binder": "EKIQAKPAYWNLVKDTQNS-NH2 (not fully specified (residue 14))", "note": "[Compound 14]", "Percent rescue (100 nM, compared with 100 nM Comp 8) in mouse splenocyte proliferation CFSE based assay": 18}, {"binder": "SNTSESFKKAQIKE-NH2 (not fully specified (residue 8))", "note": "[Compound 32]", "Percent rescue (100 nM, compared with 100 nM Comp 8) in mouse splenocyte proliferation CFSE based assay": 14.8}, {"binder": "SNTSESFKFRVTQKKAQIKE-NH2 (not fully specified (residues 8, 14))", "note": "[Compound 35]", "Percent rescue (100 nM, compared with 100 nM Comp 8) in mouse splenocyte proliferation CFSE based assay": 81.2}, {"binder": "SNTSESFKFK(Palmitoyl)VTQLAPKAQIKE-NH2 (not fully specified (residue 8))", "note": "[Compound 40]", "Percent rescue (100 nM, compared with 100 nM Comp 8) in mouse splenocyte proliferation CFSE based assay": 82}, {"binder": "SNTSESFK(SNTSESF)FKVTQEAPKAQIKE-NH2 (lactam 10-14; reading uncertain)", "note": "[Compound 63]", "Percent rescue (100 nM, compared with 100 nM Comp 8) in mouse splenocyte proliferation CFSE based assay": 68}, {"binder": "EKIQAKPALQTVRFKFSESTNS (not fully specified; Retro inverso (All D-amino acid); branch fsestns on the side chain of lys 15 of the main chain; C-terminal amide)", "note": "[Compound 49]", "Percent rescue (100 nM, compared with 100 nM Comp 8) in mouse splenocyte proliferation CFSE based assay": 73}, {"binder": "SNTSESFKFRVTQLAPKAQIKE-NH2 (not fully specified (residue 8); printed as SNTSESFK(LAP)FRVTQLAPKAQIKE-NH2)", "note": "[Compound 37]", "Percent rescue (100 nM, compared with 100 nM Comp 8) in mouse splenocyte proliferation CFSE based assay": 89.6}, {"binder": "SNTSESFKFRVTQLAPKAQIK(Octanoyl)E-NH2 (not fully specified (residue 8))", "note": "[Compound 46]", "Percent rescue (100 nM, compared with 100 nM Comp 8) in mouse splenocyte proliferation CFSE based assay": 67}, {"binder": "SNTSESFKFRVTQLAPKAQIKE-NH2", "note": "[Compound 27]", "Percent rescue (100 nM, compared with 100 nM Comp 8) in mouse splenocyte proliferation CFSE based assay": 73.6}, {"binder": "FRVTQKFRVTQLAPKAQIKE-NH2 (not fully specified (residue 6))", "note": "[Compound 7]", "Percent rescue (100 nM, compared with 100 nM Comp 8) in mouse splenocyte proliferation CFSE based assay": 61.5}, {"binder": "SNTSESFKFRVTQLAKQIKE-NH2 (not fully specified (residues 8, 16))", "note": "[Compound 36]", "Percent rescue (100 nM, compared with 100 nM Comp 8) in mouse splenocyte proliferation CFSE based assay": 89.7}, {"binder": "SNTSESFKLAPKAQIKE-NH2 (not fully specified (residue 8))", "note": "[Compound 30]", "Percent rescue (100 nM, compared with 100 nM Comp 8) in mouse splenocyte proliferation CFSE based assay": 58.8}, {"binder": "SNQTDKVLNWYRMLAPKAQIKE-NH2 (not fully specified (residue 6); printed as SNQTDK (SNQTDK) VLNWYRM LAPKAQIKE-NH2)", "note": "[Compound 10]", "Percent rescue (100 nM, compared with 100 nM Comp 8) in mouse splenocyte proliferation CFSE based assay": 10.6}, {"binder": "SNTSESFKFRVTQKAQIKE-NH2 (not fully specified (residue 8))", "note": "[Compound 31]", "Percent rescue (100 nM, compared with 100 nM Comp 8) in mouse splenocyte proliferation CFSE based assay": 11.3}, {"binder": "Ac-SNTSESFKFRVTQLAPKAQIKE-NH2 (not fully specified (residue 8))", "note": "[Compound 17]", "Percent rescue (100 nM, compared with 100 nM Comp 8) in mouse splenocyte proliferation CFSE based assay": 32.9}, {"binder": "SNTSESFK(SNTSESF)FRVTELAPKAQIKE-NH2 (lactam 13-17; reading uncertain)", "note": "[Compound 64]", "Percent rescue (100 nM, compared with 100 nM Comp 8) in mouse splenocyte proliferation CFSE based assay": 69.1}, {"binder": "SNTSESFKFRVTQLAPKAQIKE-NH2 (not fully specified (residue 8))", "note": "[Compound 20]", "Percent rescue (100 nM, compared with 100 nM Comp 8) in mouse splenocyte proliferation CFSE based assay": 27.8}, {"binder": "FRVTQLAPKAQIKE-NH2", "note": "[Compound 43]", "Percent rescue (100 nM, compared with 100 nM Comp 8) in mouse splenocyte proliferation CFSE based assay": 66}, {"binder": "SNTSESFKFRVTQLAPKAQIKE-NH2 (not fully specified (residue 8))", "note": "[Compound 11]", "Percent rescue (100 nM, compared with 100 nM Comp 8) in mouse splenocyte proliferation CFSE based assay": 12.4}, {"binder": "SNTSESFKFRVTQLAQIKE-NH2 (not fully specified (residue 8))", "note": "[Compound 25]", "Percent rescue (100 nM, compared with 100 nM Comp 8) in mouse splenocyte proliferation CFSE based assay": 27.6}, {"binder": "SNTSESFKSNTSESFFRVTQLAPKAQIKE-NH2", "note": "[Compound 28]", "Percent rescue (100 nM, compared with 100 nM Comp 8) in mouse splenocyte proliferation CFSE based assay": 56.5}, {"binder": "SNWSEDLK(SNWSEDL)FQIIQLHPK(Palmitoyl)AKIEE-NH2", "note": "[Compound 82]", "Percent rescue (100 nM, compared with 100 nM Comp 8) in mouse splenocyte proliferation CFSE based assay": 58.3}, {"binder": "SNWSEDLK(SNWSEDL)FQIIQLHPKAKIEE-NH2", "note": "[Compound 69]", "Percent rescue (100 nM, compared with 100 nM Comp 8) in mouse splenocyte proliferation CFSE based assay": 48}, {"binder": "SNTSESF-NH2", "note": "[Compound 1]", "Percent rescue (100 nM, compared with 100 nM Comp 8) in mouse splenocyte proliferation CFSE based assay": 96.5}, {"binder": "SNTSESFFRVTQKLAPKAQIKE-NH2 (not fully specified (residue 13))", "note": "[Compound 42]", "Percent rescue (100 nM, compared with 100 nM Comp 8) in mouse splenocyte proliferation CFSE based assay": 52.9}, {"binder": "SNQTDKFRVTQLAPKAQIKE-NH2 (not fully specified (residue 6); printed as SNQTDK (SNQTDK) FRVTQ LAPKAQIKE-NH2)", "note": "[Compound 9]", "Percent rescue (100 nM, compared with 100 nM Comp 8) in mouse splenocyte proliferation CFSE based assay": 11.3}, {"binder": "SNWSEDLKFQIIQLHPK(MPA‑NH‑CH2‑CH2‑O‑CH2‑CH2‑O‑CO)AKIEE-NH2 (not fully specified (residue 8))", "note": "[Compound 91]", "Percent rescue (100 nM, compared with 100 nM Comp 8) in mouse splenocyte proliferation CFSE based assay": 69.4}, {"binder": "Hexanoyl-SNTSESFKFRVTQLAPKAQIKE-NH2 (not fully specified (residue 8))", "note": "[Compound 16]", "Percent rescue (100 nM, compared with 100 nM Comp 8) in mouse splenocyte proliferation CFSE based assay": 45.8}, {"binder": "SNTSESFKFRVTQLAPKAQIKE-NH2 (not fully specified (residue 8))", "note": "[Compound 84]", "Percent rescue (100 nM, compared with 100 nM Comp 8) in mouse splenocyte proliferation CFSE based assay": 80.5}, {"binder": "{Biotin-Ahx}-[dS][dN][dT][dS][dE][dS][dF][dK][dF][dR][dV][dT][dQ][dL][dA][dP][dK][dA][dQ][dI][dK][dE]-NH2 (not fully specified (residue 8); printed as Biotin-Ahx-sntsesfk(sntsesf)frvtqlapkaqike-NH2)", "note": "[Compound 60]", "Percent rescue (100 nM, compared with 100 nM Comp 8) in mouse splenocyte proliferation CFSE based assay": 14.9}, {"binder": "SNTSESFK(SNTSESF)FRVTQLAPEAQIKE-NH2 (lactam 17-21; reading uncertain)", "note": "[Compound 62]", "Percent rescue (100 nM, compared with 100 nM Comp 8) in mouse splenocyte proliferation CFSE based assay": 37}, {"binder": "SNTSESFKFRVTQLAP-NH2 (not fully specified (residue 8))", "note": "[Compound 41]", "Percent rescue (100 nM, compared with 100 nM Comp 8) in mouse splenocyte proliferation CFSE based assay": 5.1}, {"binder": "SNTSESF[R5]PKA[R5]SNTSESF-NH2 (staple 8-12; not fully specified; printed as SNTSESFR5PKAR5SNTSESF)", "note": "[Compound 22]", "Percent rescue (100 nM, compared with 100 nM Comp 8) in mouse splenocyte proliferation CFSE based assay": 71.4}]}]}
